Measurements: patent US12679878B2, “CRF2 receptor agonists and their use in therapy” (SANOFI, priority 2020, dated 2026)
Starred links: 1 amine or outer side, 2 acyl side, 3 side chain; linkers in the order of their positions; H or OH if unused. Non-standard residues stand in square brackets, D forms with d. Groups on a side chain read outwards from the residue. No end group written: not given here. *: point of attachment. γGlu = O=C(O)[C@H](CCC(=O)[*:2])N[*:1]; Palmitoyl = CCCCCCCCCCCCCCCC(=O)*; Aib = CC(C)(N)C(=O)O

Legend:
Test in all cases: cell-based or functional assay
[1] = biological target: T1, CRF1R receptor (anti-target) (UniProt P34998 24-415, limits assumed)
T1 sequence (looked up): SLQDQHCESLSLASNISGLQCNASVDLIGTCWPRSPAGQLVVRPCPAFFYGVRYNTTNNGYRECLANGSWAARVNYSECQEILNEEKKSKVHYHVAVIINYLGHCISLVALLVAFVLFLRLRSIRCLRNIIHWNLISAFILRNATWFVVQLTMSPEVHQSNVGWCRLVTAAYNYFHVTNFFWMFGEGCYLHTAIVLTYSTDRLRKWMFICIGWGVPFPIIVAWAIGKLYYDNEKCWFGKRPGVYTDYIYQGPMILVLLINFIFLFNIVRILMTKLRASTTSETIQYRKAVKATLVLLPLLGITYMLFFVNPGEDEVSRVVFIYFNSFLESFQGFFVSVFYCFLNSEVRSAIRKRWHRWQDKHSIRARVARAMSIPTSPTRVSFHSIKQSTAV

[2] = biological target: human corticotropin-releasing factor 2α receptor (CRF2α receptor) (human), Q13324
human corticotropin-releasing factor 2α receptor (CRF2α receptor) (human), Q13324, sequence (Q13324 20-411): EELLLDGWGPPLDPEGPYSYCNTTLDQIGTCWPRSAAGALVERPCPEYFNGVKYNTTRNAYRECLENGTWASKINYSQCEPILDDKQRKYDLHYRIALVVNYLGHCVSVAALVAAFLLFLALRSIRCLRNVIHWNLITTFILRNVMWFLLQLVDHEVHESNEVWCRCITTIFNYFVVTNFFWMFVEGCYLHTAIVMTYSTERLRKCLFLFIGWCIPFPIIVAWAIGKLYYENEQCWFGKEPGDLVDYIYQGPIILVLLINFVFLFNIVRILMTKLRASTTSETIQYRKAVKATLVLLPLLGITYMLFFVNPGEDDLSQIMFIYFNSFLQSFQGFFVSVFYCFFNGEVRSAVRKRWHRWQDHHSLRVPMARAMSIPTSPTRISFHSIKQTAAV

[3] = biological target: human corticotropin-releasing factor 2α (CRF2α receptor) (human), Q13324
human corticotropin-releasing factor 2α (CRF2α receptor) (human), Q13324, sequence (Q13324 20-411): as above

B1: peptide of SEQ ID NO: 204 (peptide)
peptide: IVLSLD[dV]PIKLK([γGlu-Palmitoyl])QILLKQERQK[Aib]QREQAEKNKQILAQV-NH2
modifications: N-terminus assumed
SMILES: CCCCCCCCCCCCCCCC(=O)N[C@@H](CCC(=O)NCCCC[C@H](NC(=O)[C@H](CC(C)C)NC(=O)[C@H](CCCCN)NC(=O)[C@@H](NC(=O)[C@@H]1CCCN1C(=O)[C@H](NC(=O)[C@H](CC(=O)O)NC(=O)[C@H](CC(C)C)NC(=O)[C@H](CO)NC(=O)[C@H](CC(C)C)NC(=O)[C@@H](NC(=O)[C@@H](N)[C@@H](C)CC)C(C)C)C(C)C)[C@@H](C)CC)C(=O)N[C@@H](CCC(N)=O)C(=O)N[C@H](C(=O)N[C@@H](CC(C)C)C(=O)N[C@@H](CC(C)C)C(=O)N[C@@H](CCCCN)C(=O)N[C@@H](CCC(N)=O)C(=O)N[C@@H](CCC(=O)O)C(=O)N[C@@H](CCCNC(=N)N)C(=O)N[C@@H](CCC(N)=O)C(=O)N[C@@H](CCCCN)C(=O)NC(C)(C)C(=O)N[C@@H](CCC(N)=O)C(=O)N[C@@H](CCCNC(=N)N)C(=O)N[C@@H](CCC(=O)O)C(=O)N[C@@H](CCC(N)=O)C(=O)N[C@@H](C)C(=O)N[C@@H](CCC(=O)O)C(=O)N[C@@H](CCCCN)C(=O)N[C@@H](CC(N)=O)C(=O)N[C@@H](CCCCN)C(=O)N[C@@H](CCC(N)=O)C(=O)N[C@H](C(=O)N[C@@H](CC(C)C)C(=O)N[C@@H](C)C(=O)N[C@@H](CCC(N)=O)C(=O)N[C@H](C(N)=O)C(C)C)[C@@H](C)CC)[C@@H](C)CC)C(=O)O
With B1 the “CRF1/CRF2 ratio (of EC50)” value [1] was 3, the “CRF1 EC50 (cAMP, HTRF)” value [1] was 0.44 nM and the CRF2 EC50 (cAMP, HTRF) [2] was 0.14 nM. For the same binder, the EC50 [nM], 0% HSA (cAMP, HTRF) [3] was 0.14 nM.

B2: peptide of SEQ ID NO: 209 (peptide)
peptide: IVLSLD[dV]PIKLK([γGlu-Palmitoyl])QILLKQERQKK[Aib]RQKAEKNKQILAQV-NH2
modifications: N-terminus assumed
SMILES: CCCCCCCCCCCCCCCC(=O)N[C@@H](CCC(=O)NCCCC[C@H](NC(=O)[C@H](CC(C)C)NC(=O)[C@H](CCCCN)NC(=O)[C@@H](NC(=O)[C@@H]1CCCN1C(=O)[C@H](NC(=O)[C@H](CC(=O)O)NC(=O)[C@H](CC(C)C)NC(=O)[C@H](CO)NC(=O)[C@H](CC(C)C)NC(=O)[C@@H](NC(=O)[C@@H](N)[C@@H](C)CC)C(C)C)C(C)C)[C@@H](C)CC)C(=O)N[C@@H](CCC(N)=O)C(=O)N[C@H](C(=O)N[C@@H](CC(C)C)C(=O)N[C@@H](CC(C)C)C(=O)N[C@@H](CCCCN)C(=O)N[C@@H](CCC(N)=O)C(=O)N[C@@H](CCC(=O)O)C(=O)N[C@@H](CCCNC(=N)N)C(=O)N[C@@H](CCC(N)=O)C(=O)N[C@@H](CCCCN)C(=O)N[C@@H](CCCCN)C(=O)NC(C)(C)C(=O)N[C@@H](CCCNC(=N)N)C(=O)N[C@@H](CCC(N)=O)C(=O)N[C@@H](CCCCN)C(=O)N[C@@H](C)C(=O)N[C@@H](CCC(=O)O)C(=O)N[C@@H](CCCCN)C(=O)N[C@@H](CC(N)=O)C(=O)N[C@@H](CCCCN)C(=O)N[C@@H](CCC(N)=O)C(=O)N[C@H](C(=O)N[C@@H](CC(C)C)C(=O)N[C@@H](C)C(=O)N[C@@H](CCC(N)=O)C(=O)N[C@H](C(N)=O)C(C)C)[C@@H](C)CC)[C@@H](C)CC)C(=O)O
B2 was tested, and the “CRF1/CRF2 ratio (of EC50)” value [1] was 3, the “CRF1 EC50 (cAMP, HTRF)” value [1] was 21.7 nM and the CRF2 EC50 (cAMP, HTRF) [2] was 8.62 nM. It also gave an EC50 [nM], 0% HSA (cAMP, HTRF) [3] of 8.62 nM.

B3: peptide of SEQ ID NO: 207 (peptide)
peptide: IVLSLD[dV]PIGLK([γGlu-Palmitoyl])QILLKQERQKK[Aib]REQAETNKRILERV-NH2
modifications: N-terminus assumed
SMILES: CCCCCCCCCCCCCCCC(=O)N[C@@H](CCC(=O)NCCCC[C@H](NC(=O)[C@H](CC(C)C)NC(=O)CNC(=O)[C@@H](NC(=O)[C@@H]1CCCN1C(=O)[C@H](NC(=O)[C@H](CC(=O)O)NC(=O)[C@H](CC(C)C)NC(=O)[C@H](CO)NC(=O)[C@H](CC(C)C)NC(=O)[C@@H](NC(=O)[C@@H](N)[C@@H](C)CC)C(C)C)C(C)C)[C@@H](C)CC)C(=O)N[C@@H](CCC(N)=O)C(=O)N[C@H](C(=O)N[C@@H](CC(C)C)C(=O)N[C@@H](CC(C)C)C(=O)N[C@@H](CCCCN)C(=O)N[C@@H](CCC(N)=O)C(=O)N[C@@H](CCC(=O)O)C(=O)N[C@@H](CCCNC(=N)N)C(=O)N[C@@H](CCC(N)=O)C(=O)N[C@@H](CCCCN)C(=O)N[C@@H](CCCCN)C(=O)NC(C)(C)C(=O)N[C@@H](CCCNC(=N)N)C(=O)N[C@@H](CCC(=O)O)C(=O)N[C@@H](CCC(N)=O)C(=O)N[C@@H](C)C(=O)N[C@@H](CCC(=O)O)C(=O)N[C@H](C(=O)N[C@@H](CC(N)=O)C(=O)N[C@@H](CCCCN)C(=O)N[C@@H](CCCNC(=N)N)C(=O)N[C@H](C(=O)N[C@@H](CC(C)C)C(=O)N[C@@H](CCC(=O)O)C(=O)N[C@@H](CCCNC(=N)N)C(=O)N[C@H](C(N)=O)C(C)C)[C@@H](C)CC)[C@@H](C)O)[C@@H](C)CC)C(=O)O
In the case of B3, the “CRF1/CRF2 ratio (of EC50)” value [1] is reported as 6, the “CRF1 EC50 (cAMP, HTRF)” value [1] is reported as 4.18 nM and the CRF2 EC50 (cAMP, HTRF) [2] is reported as 0.68 nM. For the same binder, the EC50 [nM], 0% HSA (cAMP, HTRF) [3] was 0.68 nM.

B4: peptide of SEQ ID NO: 208 (peptide)
peptide: IVLSLD[dV]PIKLK([γGlu-Palmitoyl])QILLKQERQK[Aib]QRQQAEKNKQILAQV-NH2
modifications: N-terminus assumed
SMILES: CCCCCCCCCCCCCCCC(=O)N[C@@H](CCC(=O)NCCCC[C@H](NC(=O)[C@H](CC(C)C)NC(=O)[C@H](CCCCN)NC(=O)[C@@H](NC(=O)[C@@H]1CCCN1C(=O)[C@H](NC(=O)[C@H](CC(=O)O)NC(=O)[C@H](CC(C)C)NC(=O)[C@H](CO)NC(=O)[C@H](CC(C)C)NC(=O)[C@@H](NC(=O)[C@@H](N)[C@@H](C)CC)C(C)C)C(C)C)[C@@H](C)CC)C(=O)N[C@@H](CCC(N)=O)C(=O)N[C@H](C(=O)N[C@@H](CC(C)C)C(=O)N[C@@H](CC(C)C)C(=O)N[C@@H](CCCCN)C(=O)N[C@@H](CCC(N)=O)C(=O)N[C@@H](CCC(=O)O)C(=O)N[C@@H](CCCNC(=N)N)C(=O)N[C@@H](CCC(N)=O)C(=O)N[C@@H](CCCCN)C(=O)NC(C)(C)C(=O)N[C@@H](CCC(N)=O)C(=O)N[C@@H](CCCNC(=N)N)C(=O)N[C@@H](CCC(N)=O)C(=O)N[C@@H](CCC(N)=O)C(=O)N[C@@H](C)C(=O)N[C@@H](CCC(=O)O)C(=O)N[C@@H](CCCCN)C(=O)N[C@@H](CC(N)=O)C(=O)N[C@@H](CCCCN)C(=O)N[C@@H](CCC(N)=O)C(=O)N[C@H](C(=O)N[C@@H](CC(C)C)C(=O)N[C@@H](C)C(=O)N[C@@H](CCC(N)=O)C(=O)N[C@H](C(N)=O)C(C)C)[C@@H](C)CC)[C@@H](C)CC)C(=O)O
With B4 the “CRF1/CRF2 ratio (of EC50)” value [1] was 2, the “CRF1 EC50 (cAMP, HTRF)” value [1] was 1.43 nM and the CRF2 EC50 (cAMP, HTRF) [2] was 0.9 nM. For the same binder, the EC50 [nM], 0% HSA (cAMP, HTRF) [3] was 0.9 nM.
